Publication PMC11139282, “Structure and activity of the septal peptidoglycan hydrolysis machinery crucial for bacterial cell division” (PLOS Biology, 2024)

T1: EnvC_(35-420) (E. coli K-12, UniProt P37690 35-419)
T1 construct: Only part of the coiled-coil domain is modelled in the cryo-EM structure; also called ecEnvC; source: E. coli C43(DE3), purified (Ni-NTA, SEC, TEV, Ni-NTA, SEC); not shown: His8, N-terminal, cleaved; SUMO, N-terminal, cleaved; Strep tag II, C-terminal, kept
T1 sequence (looked up): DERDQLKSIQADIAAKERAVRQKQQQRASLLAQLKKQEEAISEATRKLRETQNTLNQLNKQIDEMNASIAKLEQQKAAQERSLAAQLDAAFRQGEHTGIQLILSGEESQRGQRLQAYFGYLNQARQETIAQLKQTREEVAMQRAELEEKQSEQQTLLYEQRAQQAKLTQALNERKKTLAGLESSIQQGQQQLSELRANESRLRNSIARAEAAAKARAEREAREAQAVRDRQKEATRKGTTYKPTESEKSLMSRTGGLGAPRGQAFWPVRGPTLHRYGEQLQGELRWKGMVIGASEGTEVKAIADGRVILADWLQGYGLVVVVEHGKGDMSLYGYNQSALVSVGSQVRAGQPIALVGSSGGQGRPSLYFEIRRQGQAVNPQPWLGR


Experiments:
[1] = biological target: T1, EnvC_(35-420); assay: cryo-EM structure; ATP-bound FtsE^E163QX^Δ4-18-EnvC(35-420) reconstituted in PMAL-C8, about 1 mg/ml, 3.11 Å; conditions: both partners purified
[2] = biological target: the molecule itself; assay: as above
[3] = biological target: T1, EnvC_(35-420); assay: pull-down + SEC; purified FtsE^E163QX or FtsX incubated with EnvC(35-420)-Strep at a molar ratio of 1:1.5, moved into PMAL-C8; Strep column to remove unbound FtsEX or FtsX, then Superdex 200 in 20 mM Tris pH 8.0, 300 mM NaCl (1 mM ATP for FtsE^E163QX); peak validated by SDS-PAGE; conditions: both partners purified

binding result [1]	binding result [3]	Binder	binding result [2]
binds	–	FtsX^Δ4–18 (natural protein, E. coli K-12, UniProt P0AC30 1-352, looked up, FtsX, E. coli K-12, with residues 4-18 deleted; The results call the cryo-EM sample FtsE^E163QX; the methods say that the grids held FtsE^E163QX^Δ4-18; also called ecFtsX) MNKRFRKSVGGSGDGGRNAPKRAKSSPKPVNRKTNVFNEQVRYAFHGALQDLKSKPFATFLTVMVIAISLTLPSVCYMVYKNVNQAATQYYPSPQITVYLQKTLDDDAAAGVVAQLQAEQGVEKVNYLSREDALGEFRNWSGFGGALDMLEENPLPAVAVVIPKLDFQGTESLNTLRDRITQINGIDEVRMDDSWFARLAALTGLVGRVSAMIGVLMVAAVFLVIGNSVRLSIFARRDSINVQKLIGATDGFILRPFLYGGALLGFSGALLSLILSEILVLRLSSAVAEVAQVFGTKFDINGLSFDECLLLLLVCSMIGWVAAWLATVQHLRHFTPE	binds
–	binds	FtsX (purified alone) (natural protein, E. coli K-12, UniProt P0AC30 1-352, looked up, FtsX, E. coli K-12; The plasmid section describes pET28a-ftsX (N-terminal 8xHis); the purification section names pSUMO-ftsX (His8-SUMO), tag not removed; Whether SUMO stood on the protein is open; not shown: His8, N-terminal, kept) MNKRDAINHIRQFGGRLDRFRKSVGGSGDGGRNAPKRAKSSPKPVNRKTNVFNEQVRYAFHGALQDLKSKPFATFLTVMVIAISLTLPSVCYMVYKNVNQAATQYYPSPQITVYLQKTLDDDAAAGVVAQLQAEQGVEKVNYLSREDALGEFRNWSGFGGALDMLEENPLPAVAVVIPKLDFQGTESLNTLRDRITQINGIDEVRMDDSWFARLAALTGLVGRVSAMIGVLMVAAVFLVIGNSVRLSIFARRDSINVQKLIGATDGFILRPFLYGGALLGFSGALLSLILSEILVLRLSSAVAEVAQVFGTKFDINGLSFDECLLLLLVCSMIGWVAAWLATVQHLRHFTPE	–
–	–	FtsE^E163Q (natural protein, E. coli K-12, UniProt P0A9R7 1-222, looked up, The pSUMO plasmid adds an N-terminal His8-SUMO-TEV site, removed by TEV; Two copies stand in the FtsEX complex; also called ecFtsE^E163Q; not shown: His8 (chain inferred: first gene of pSUMO-ftsEX), N-terminal, cleaved; SUMO (chain inferred: first gene of pSUMO-ftsEX), N-terminal, cleaved) MIRFEHVSKAYLGGRQALQGVTFHMQPGEMAFLTGHSGAGKSTLLKLICGIERPSAGKIWFSGHDITRLKNREVPFLRRQIGMIFQDHHLLMDRTVYDNVAIPLIIAGASGDDIRRRVSAALDKVGLLDKAKNFPIQLSGGEQQRVGIARAVVNKPAVLLADQPTGNLDDALSEGILRLFEEFNRVGVTVLMATHDINLISRRSYRMLTLSDGHLHGGVGHE	binds
